The text below walks through data of article PMC8988010 (The Journal of Biological Chemistry, 2021).

Where a chain is given by its changes, count along the chain named. In names and notes the source's numbering stands.

Usually Kd stands for the equilibrium constant for the complex coming apart. Usually stoichiometry N stands for the number of molecules, sites or subunits per partner or assembly.

For one data set, the target named is HNF-1A DBD N266S (Homo sapiens, UniProt P20823 83-279, N266S). Briefly: ITC. (In general: Isothermal titration calorimetry measures the heat released or taken up as one component is titrated into another.)
HNF-1A DBD N266S, sequence (P20823 83-279 N266S): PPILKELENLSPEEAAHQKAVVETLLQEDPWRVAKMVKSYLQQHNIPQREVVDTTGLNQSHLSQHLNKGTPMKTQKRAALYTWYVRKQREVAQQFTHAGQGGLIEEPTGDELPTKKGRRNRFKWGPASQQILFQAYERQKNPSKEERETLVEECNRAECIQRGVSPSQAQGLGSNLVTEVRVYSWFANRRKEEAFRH
The target in a further data set is HNF-1A DD-DBD N266S (Homo sapiens, UniProt P20823 1-279, N266S). The experiment in a line: ITC.
HNF-1A DD-DBD N266S, sequence (P20823 1-279 N266S): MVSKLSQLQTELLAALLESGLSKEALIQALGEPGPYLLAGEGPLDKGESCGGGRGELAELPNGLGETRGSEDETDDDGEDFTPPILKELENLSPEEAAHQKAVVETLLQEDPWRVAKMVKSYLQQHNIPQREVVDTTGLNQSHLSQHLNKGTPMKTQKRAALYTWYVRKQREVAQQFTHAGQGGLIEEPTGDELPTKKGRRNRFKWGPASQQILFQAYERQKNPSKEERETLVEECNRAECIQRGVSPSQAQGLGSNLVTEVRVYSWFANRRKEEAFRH
The target of a further data set is HNF-1A DBD R263C (Homo sapiens, UniProt P20823 83-279, R263C). The experiment in a line: ITC.
HNF-1A DBD R263C, sequence (P20823 83-279 R263C): as the sequence (P20823 83-279 N266S) above, with R181C, S184N counted along it
The next data set addresses HNF-1A DD-DBD R263C (Homo sapiens, UniProt P20823 1-279, R263C). Briefly: ITC.
The data set “SEC-MALS” concerns the molecule itself. Briefly: SEC-MALS. (In general: SEC sorts molecules by how far they enter the pores of the column.)

B1: RA (rat albumin promoter oligonucleotide), unlabeled (dsDNA)
DNA 1: CTTGGTTAATAATTCACCAGA
DNA 2: TCTGGTGAATTATTAACCAAG
For the molecule B1, the Kd in the data set with HNF-1A DBD N266S turned out to be 570 ± 50 nM; in the data set with HNF-1A DD-DBD N266S, 740 ± 110 nM; in the data set with HNF-1A DBD R263C, 2000 ± 140 nM; with HNF-1A DD-DBD R263C, 8000 ± 3000 nM.

B2: HNF-1A DD-DBD (hepatocyte nuclear factor 1A, residues 1-279, WT) (domain or fragment, human, UniProt P20823 1-279, looked up)
chain: MVSKLSQLQTELLAALLESGLSKEALIQALGEPGPYLLAGEGPLDKGESCGGGRGELAELPNGLGETRGSEDETDDDGEDFTPPILKELENLSPEEAAHQKAVVETLLQEDPWRVAKMVKSYLQQHNIPQREVVDTTGLNQSHLSQHLNKGTPMKTQKRAALYTWYVRKQREVAQQFTHAGQGGLIEEPTGDELPTKKGRRNRFKWGPASQQILFQAYERQKNPSKEERETLVEECNRAECIQRGVSPSQAQGLGSNLVTEVRVYNWFANRRKEEAFRH
For B2, in “SEC-MALS”, the “stoichiometry N” value is 2.

B3: HNF-1A DD-DBD/R263C (residues 1-279, MODY3 variant p.Arg263Cys) (domain or fragment, human, UniProt P20823 1-279, looked up)
chain: B2 chain with R263C
Take B3: in the data set “SEC-MALS”, the “stoichiometry N” value turned out to be 2.

B4: HNF-1A DD-DBD/N266S (residues 1-279, variant p.Asn266Ser) (domain or fragment, human, UniProt P20823 1-279, looked up)
chain: B2 chain with N266S
As for B4, the binding result in “SEC-MALS” is recorded as “binds”.
